B1: Transcription elongation regulator 1-like protein, residues 448 to 504; numbered along this chain, Q5VWI1 (parent)
chain: LPLEERVTHFRDMLLERGVSAFSTWEKELHKIVFDPRYLLLNSEERKQIFEQFVKTR

Variants of: B1
Test: abundance fitness (aPCA) (normalised: wild type 0, dead -1); higher = more abundant; growth selection in yeast, the domain comes from the species named
Conditions: Homo sapiens

Abundance fitness: each site, then its substitutions
V33: L -0.47, A -0.138, E -0.076, C -0.514, H 0.238, K 0.062, P -0.112, G -0.764, I 0.129, W -0.415, M -0.227, S 0.028, R 0.108, T -0.423
K47: H -0.109, S -0.627, C -0.165, I 0.151, P -0.783, R 0.025, D -0.747, Q 0.159, L -0.286, W -0.602, A -0.381, T -0.73, E -0.58, V -0.501, F -0.04, G -0.31
Q48: A -0.036, D 0.297, C -0.227
F34: C -0.104, T 0.245, I 0.199, V -0.085, S 0.229, W -0.343, L -0.019, G 0.11, H 0.156, R 0.099, D 0.351, M -0.04, K -0.063, A 0.029
K27: V -0.422, Q 0.101, F 0.197, H -0.612, P -0.627, W -0.799, G -0.366, T -0.711, C -0.032, A 0.073, E -0.165, S -0.679, R -0.295
K31: C -0.457, L -0.781, P -0.681, S -0.789, V -0.705, M -0.496, R -0.662, F -0.587
L40: K -0.966, M -0.295, V -0.877, D -1.05, A -0.504, E -0.466, P -0.688, W -0.639, G -0.349, S -0.619
R37: V -0.564, Q -0.829, G -0.692, A -1.19, L -0.952, E -0.917, C -0.75, P -0.769, W -0.733, M -0.81
S43: T -0.197, F -0.328, V -0.309, R -0.156, Q 0.07, L -0.065, A 0.016, E 0.341, N -0.367, K -0.145, W -0.424, M -0.134, G 0.034
L29: Y 0.907, P -0.722, M 0.377, C -0.373, T -0.253, I 0.281, K 0.158, G -0.667, V -0.213, R 0.095, S -0.452, A -0.409, E 0.139, H 0.264, W -0.986
R46: V -0.436, C -0.657, A -0.057, W -0.012, Y -0.162, F -0.533, T -0.815, K -0.429, S -0.644, L -0.697, G -0.39
T24: S -0.237, P -0.571, G -0.662, R -0.701, Q -0.503, I -0.692, V -0.59, H -0.361, A -0.561, C 0.197, L -0.559
Y38: T -0.69, S -0.898, G -0.786, K -0.275, M -0.801, Q -0.668, L -0.5, A -0.815, I -0.645, P -0.653, R -0.669, V -0.767, W -1.06, F -0.129
E26: W -0.84, M -0.09, A -0.636, R -0.861, Q -0.355, G -0.643, S -0.658, V -0.914, K -1.04, P -0.294, F -0.617, D -0.168, C 0.153, T -0.524, L -0.564

— the Human Domainome abundance scans (Beltran et al. 2025)
